Blocking [%] and Normalized to Zika Blocking [%] data for one molecule are collected here from patent publication US20200048312A1.

For test [1], the target named is antibodies of human serum sample 16CDV61278 (Zika IgG positive) (human). In words: blocking of ß-ladder DAGS ECL signal.
Test [2] deals with antibodies of human serum sample 16CDV61275 (Zika IgG) (human). Nature of the test: blocking of ß-ladder DAGS ECL signal.
Test [3] concerns the target antibodies of human serum sample 16CDV61197 (Zika IgG positive) (human). In words: blocking of ß-ladder DAGS ECL signal.
The target of test [4] is antibodies of human serum sample 16CDV61278 (Zika IgG positive) (human). In words: blocking of wing DAGS ECL signal.
Test [5] deals with antibodies of human serum sample 16CDV61275 (Zika IgG) (human). Nature of the test: blocking of wing DAGS ECL signal.
For test [6], the target named is antibodies of human serum sample 16CDV61197 (Zika IgG positive) (human). In words: blocking of wing DAGS ECL signal.

B1: Dengue virus type 4 NS1 full length (protein)
chain: DTGCAVSWSGKELKCGSGIFVIDNVHTWTEQYKFQPESPARLASAILNAHEDGVCGIRSTTRLENIMWKQITNELNYVLWEGGHDLTVVAGDVKGVLSKGKRALAPPVNDLKYSWKTWGKAKIFTPEAKNSTFLIDGPDTSECPNERRAWNFLEVEDYGFGMFTTNIWMKFREGSSEVCDHRLMSAAIKDQKAVHADMGYWIESSKNQTWQIEKASLIEVKTCLWPKTHTLWSNGVLESQMLIPKAYAGPFSQHNYRQGYATQTVGPWHLGKLEIDFGECPGTTVTIQEDCDHRGPSLRTTTASGKLVTQWCCRSCTMPPLRFLGEDGCWYGMEIRPLSEKEENMVKSQVSA
Turning to B1, the Blocking [%] in test [1] came out at 2.6%; in test [2], 25.1%; in test [3] it was 31.6%; in test [4], 4.5%; in test [5] it was 2.48%; in test [6] it was 0.891%. Further, the Normalized to Zika Blocking [%] in test [1] is 3.7%; in test [2] it was 27.3%; in test [3], 50.3%; in test [4], 4.9%; in test [5] it was 3.3%; in test [6], 1.2%.
